# Data taken from article doi:10.1101/2020.04.20.049213 (bioRxiv, 2020).
# T1: JARID2 (aa 1-450) (human, UniProt Q92833 1-450, K116me3 (trimethyl-lysine at 116))
# T1 sequence: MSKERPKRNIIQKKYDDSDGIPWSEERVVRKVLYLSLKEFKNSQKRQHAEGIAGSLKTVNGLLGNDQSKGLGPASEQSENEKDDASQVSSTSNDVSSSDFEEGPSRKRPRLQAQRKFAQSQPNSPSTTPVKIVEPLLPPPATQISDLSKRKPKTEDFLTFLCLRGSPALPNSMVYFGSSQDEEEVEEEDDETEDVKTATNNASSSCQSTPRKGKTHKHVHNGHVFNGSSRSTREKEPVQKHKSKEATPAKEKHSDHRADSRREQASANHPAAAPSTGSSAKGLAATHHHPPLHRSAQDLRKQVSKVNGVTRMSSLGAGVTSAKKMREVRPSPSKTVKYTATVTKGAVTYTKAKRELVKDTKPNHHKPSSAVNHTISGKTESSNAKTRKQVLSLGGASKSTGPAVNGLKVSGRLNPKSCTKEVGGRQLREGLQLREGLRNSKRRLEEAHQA
# B1: EED (aa 80-441) (domain or fragment)
# chain: not shown
# Biological target: T1, JARID2 (aa 1-450)
# Assay: cryo-EM structure
binder,measurement,value
B1,binding result,binds
